Experimental findings from patent publication US20140274782A1, “AFFINITY REAGENTS AND METHODS FOR DETECTION, PURIFICATION, AND PROTEOMIC ANALYSIS OF METHYLATED PROTEINS” (The Board of Trustees of the Leland Stanford Junior …, priority 2013, published 2014) are described below.

The target of one experiment is T1, G9a and GLP (Homo sapiens, UniProt Q96KQ7+Q9H9B1).
T1 sequence (Q96KQ7 2-1210 limits assumed): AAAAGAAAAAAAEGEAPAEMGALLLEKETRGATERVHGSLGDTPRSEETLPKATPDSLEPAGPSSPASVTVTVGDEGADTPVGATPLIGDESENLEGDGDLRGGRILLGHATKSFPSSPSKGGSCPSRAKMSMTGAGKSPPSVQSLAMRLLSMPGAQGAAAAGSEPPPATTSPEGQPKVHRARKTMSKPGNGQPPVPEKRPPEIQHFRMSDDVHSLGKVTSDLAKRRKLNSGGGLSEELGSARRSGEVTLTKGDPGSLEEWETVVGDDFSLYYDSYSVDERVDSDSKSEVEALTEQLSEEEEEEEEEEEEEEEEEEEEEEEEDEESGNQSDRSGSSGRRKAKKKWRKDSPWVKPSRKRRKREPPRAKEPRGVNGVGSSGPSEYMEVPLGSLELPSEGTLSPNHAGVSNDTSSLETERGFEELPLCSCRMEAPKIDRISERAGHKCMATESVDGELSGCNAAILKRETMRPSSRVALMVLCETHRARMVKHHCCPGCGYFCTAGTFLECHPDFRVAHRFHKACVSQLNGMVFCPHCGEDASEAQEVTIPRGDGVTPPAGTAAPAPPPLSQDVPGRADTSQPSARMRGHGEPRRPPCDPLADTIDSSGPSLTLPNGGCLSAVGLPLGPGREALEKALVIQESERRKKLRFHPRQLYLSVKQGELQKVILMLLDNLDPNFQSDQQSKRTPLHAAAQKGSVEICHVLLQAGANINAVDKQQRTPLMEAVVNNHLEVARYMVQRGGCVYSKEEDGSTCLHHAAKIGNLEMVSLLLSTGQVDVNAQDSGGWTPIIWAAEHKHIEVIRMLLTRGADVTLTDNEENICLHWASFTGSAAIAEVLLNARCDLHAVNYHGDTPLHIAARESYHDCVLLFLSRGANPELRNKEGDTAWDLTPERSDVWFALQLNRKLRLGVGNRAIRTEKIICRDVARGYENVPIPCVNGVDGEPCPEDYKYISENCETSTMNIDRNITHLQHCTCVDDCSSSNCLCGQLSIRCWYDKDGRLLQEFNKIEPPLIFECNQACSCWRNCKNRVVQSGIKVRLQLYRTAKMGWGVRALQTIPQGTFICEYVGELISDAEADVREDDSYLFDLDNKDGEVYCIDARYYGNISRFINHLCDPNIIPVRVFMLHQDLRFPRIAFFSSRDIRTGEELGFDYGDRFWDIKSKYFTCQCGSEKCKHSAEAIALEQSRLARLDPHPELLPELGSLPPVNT
T1 sequence (Q9H9B1 2-1298 limits assumed): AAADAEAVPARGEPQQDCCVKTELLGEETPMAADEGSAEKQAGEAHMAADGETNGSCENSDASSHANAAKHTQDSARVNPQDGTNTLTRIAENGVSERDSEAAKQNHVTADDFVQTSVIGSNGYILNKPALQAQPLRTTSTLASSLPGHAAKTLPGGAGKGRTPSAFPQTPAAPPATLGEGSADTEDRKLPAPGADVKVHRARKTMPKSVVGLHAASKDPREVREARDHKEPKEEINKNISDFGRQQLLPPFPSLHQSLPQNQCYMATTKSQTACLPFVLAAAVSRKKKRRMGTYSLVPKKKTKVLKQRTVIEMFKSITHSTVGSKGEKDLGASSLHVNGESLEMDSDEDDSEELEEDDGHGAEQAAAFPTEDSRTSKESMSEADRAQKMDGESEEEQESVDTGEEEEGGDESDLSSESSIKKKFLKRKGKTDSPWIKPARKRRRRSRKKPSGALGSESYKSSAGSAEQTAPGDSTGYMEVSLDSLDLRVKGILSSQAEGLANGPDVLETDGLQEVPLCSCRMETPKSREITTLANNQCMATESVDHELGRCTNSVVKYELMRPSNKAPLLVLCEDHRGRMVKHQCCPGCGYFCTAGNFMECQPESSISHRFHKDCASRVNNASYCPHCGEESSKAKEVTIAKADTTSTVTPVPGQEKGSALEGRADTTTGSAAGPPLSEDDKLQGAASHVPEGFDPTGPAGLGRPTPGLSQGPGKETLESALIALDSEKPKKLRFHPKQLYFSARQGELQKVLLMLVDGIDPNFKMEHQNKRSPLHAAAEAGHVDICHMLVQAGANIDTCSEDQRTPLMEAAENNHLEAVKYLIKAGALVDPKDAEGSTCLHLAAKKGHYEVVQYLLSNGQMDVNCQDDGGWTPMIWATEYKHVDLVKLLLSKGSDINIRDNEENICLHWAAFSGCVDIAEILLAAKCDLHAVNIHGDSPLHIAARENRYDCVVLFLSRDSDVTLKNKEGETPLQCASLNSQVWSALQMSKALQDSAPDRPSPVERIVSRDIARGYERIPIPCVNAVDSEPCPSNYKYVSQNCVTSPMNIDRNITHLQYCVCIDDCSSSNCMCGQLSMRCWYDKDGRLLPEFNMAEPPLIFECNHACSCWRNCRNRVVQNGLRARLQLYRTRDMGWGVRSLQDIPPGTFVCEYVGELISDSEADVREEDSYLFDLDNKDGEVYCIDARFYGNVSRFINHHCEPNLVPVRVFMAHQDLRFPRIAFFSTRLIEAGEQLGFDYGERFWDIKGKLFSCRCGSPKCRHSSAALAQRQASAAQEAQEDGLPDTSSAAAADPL
Put plainly: Triple SILAC pull-down after UNC0638 treatment of 293T cells, DMSO/UNC0638 ratio of protein captured by 3×MBT.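 On all read-outs here: mass spectrometry (Q-Exactive) SILAC quantitation, DMSO/UNC0638 ratio computed after subtracting 3×MBTD355N mutant pull-down background, only proteins with at least twofold 3×MBT over mutant signal considered.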 Type of experiment: cell-based. The arrangement: cells were treated for 24 hours with UNC0638 at 2.5 μM or DMSO vehicle control; endogenous in cells; host or cells: HEK 293T. The settings on record: for Relative to UNC0638 UNC Heavy / Relative to UNC0638 UNC Light: SILAC ratio DMSO/UNC0638 of protein pulled down with 3xMBT; for Relative to UNC0638 UNC Heavy: UNC0638 in heavy SILAC media; for Relative to UNC0638 UNC Light: UNC0638 in light SILAC media; for Relative to UNC0638 Average: average of UNC Light and UNC Heavy experiments.

A further experiment has as its system 3×MBT domain of L3MBTL1. Put plainly: Triple SILAC pull-down, 3xMBT/3xMBTD355N ratio (cytoplasmic, nuclear and chromatin fractions of 293T cells).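 On all read-outs here: proteins quantified with MaxQuant, requiring at least two unique peptides and quantification in both label directions, normalized to the mean of proteins from a digested loading control.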 In kind it is binding, human. The settings on record: SILAC ratio, pull-down 3xMBT vs 3xMBTD355N; for 3xMBT/D355N UNC Heavy: experiment with UNC0638 in heavy SILAC media; for 3xMBT/D355N UNC Light: experiment with UNC0638 in light SILAC media.

B1: CNBP (protein, UniProt P62633 2-177, looked up)
CCHC-type zinc finger nucleic …: SSNECFKCGRSGHWARECPTGGGRGRGMRSRGRGGFTSDRGFQFVSSSLPDICYRCGESGHLAKDCDLQEDACYNCGRGGHIAKDCKEPKREREQCCYNCGKPGHLARDCDHADEQKCYSCGEFGHIQKDCTKVKCYRCGETGHVAINCSKTSEVNCYRCGESGHLARECTIEATA
On to B1, for which, in the experiment with G9a and GLP, the “Relative to UNC0638 UNC Heavy” value amounted to 0.51 log base 2, the “Relative to UNC0638 UNC Light” value turned out to be 0.05 log base 2 and the “Relative to UNC0638 Average” value was 0.28 log base 2. In the experiment on 3×MBT domain of L3MBTL1, the “3xMBT/D355N UNC Heavy” value was determined as 1.05 log base 2 and the “3xMBT/D355N UNC Light” value turned out to be 1.79 log base 2.

B2: ZNF598 (protein, UniProt Q86UK7 1-904, looked up)
E3 ubiquitin-protein ligase …: MAAAGGAEGRRAALEAAAAAAPERGGGSCVLCCGDLEATALGRCDHPVCYRCSTKMRVLCEQRYCAVCREELRQVVFGKKLPAFATIPIHQLQHEKKYDIYFADGKVYALYRQLLQHECPRCPELPPFSLFGDLEQHMRRQHELFCCRLCLQHLQIFTYERKWYSRKDLARHRMQGDPDDTSHRGHPLCKFCDERYLDNDELLKHLRRDHYFCHFCDSDGAQDYYSDYAYLREHFREKHFLCEEGRCSTEQFTHAFRTEIDLKAHRTACHSRSRAEARQNRHIDLQFSYAPRHSRRNEGVVGGEDYEEVDRYSRQGRVARAGTRGAQQSRRGSWRYKREEEDREVAAAVRASVAAQQQEEARRSEDQEEGGRPKKEEAAARGPEDPRGPRRSPRTQGEGPGPKETSTNGPVSQEAFSVTGPAAPGCVGVPGALPPPSPKLKDEDFPSLSASTSSSCSTAATPGPVGLALPYAIPARGRSAFQEEDFPALVSSVPKPGTAPTSLVSAWNSSSSSKKVAQPPLSAQATGSGQPTRKAGKGSRGGRKGGPPFTQEEEEDGGPALQELLSTRPTGSVSSTLGLASIQPSKVGKKKKVGSEKPGTTLPQPPPATCPPGALQAPEAPASRAEGPVAVVVNGHTEGPAPARSAPKEPPGLPRPLGSFPCPTPQEDFPALGGPCPPRMPPPPGFSAVVLLKGTPPPPPPGLVPPISKPPPGFSGLLPSPHPACVPSPATTTTTKAPRLLPAPRAYLVPENFRERNLQLIQSIRDFLQSDEARFSEFKSHSGEFRQGLISAAQYYKSCRDLLGENFQKVFNELLVLLPDTAKQQELLSAHTDFCNREKPLSTKSKKNKKSAWQATTQQAGLDCRVCPTCQQVLAHGDASSHQALHAARDDDFPSLQAIARIIT
For B2, in the experiment with G9a and GLP, the “Relative to UNC0638 UNC Heavy” value was determined as 0.52 log base 2, the “Relative to UNC0638 UNC Light” value worked out at 0.06 log base 2 and the “Relative to UNC0638 Average” value was 0.29 log base 2. Also, in the experiment on 3×MBT domain of L3MBTL1, the “3xMBT/D355N UNC Heavy” value was found to be 1.92 log base 2 and the “3xMBT/D355N UNC Light” value is recorded as 3.58 log base 2.

B3: RBM3 (protein, UniProt P98179 1-157, looked up)
RNA-binding protein 3: MSSEEGKLFVGGLNFNTDEQALEDHFSSFGPISEVVVVKDRETQRSRGFGFITFTNPEHASVAMRAMNGESLDGRQIRVDHAGKSARGTRGGGFGAHGRGRSYSRGGGDQGYGSGRYYDSRPGGYGYGYGRSRDYNGRNQGGYDRYSGGNYRDNYDN
B3: in the experiment with G9a and GLP, the “Relative to UNC0638 UNC Heavy” value was 0.24 log base 2, the “Relative to UNC0638 UNC Light” value is on record as 0.33 log base 2 and the “Relative to UNC0638 Average” value came to 0.29 log base 2. In addition, in the experiment with 3×MBT domain of L3MBTL1, the “3xMBT/D355N UNC Heavy” value came out at 3.49 log base 2 and the “3xMBT/D355N UNC Light” value was found to be 3.25 log base 2.

B4: NTHL1 (protein, UniProt P78549 23-304, looked up)
Endonuclease III-like protein …: GCREEPGPLRRREAAAEARKSHSPVKRPRKAQRLRVAYEGSDSEKGEGAEPLKVPVWEPQDWQQQLVNIRAMRNKKDAPVDHLGTEHCYDSSAPPKVRRYQVLLSLMLSSQTKDQVTAGAMQRLRARGLTVDSILQTDDATLGKLIYPVGFWRSKVKYIKQTSAILQQHYGGDIPASVAELVALPGVGPKMAHLAMAVAWGTVSGIAVDTHVHRIANRLRWTKKATKSPEETRAALEEWLPRELWHEINGLLVGFGQQTCLPVHPRCHACLNQALCPAAQGL
For B4, in the experiment with G9a and GLP, the “Relative to UNC0638 UNC Heavy” value came to 0.72 log base 2, the “Relative to UNC0638 UNC Light” value is listed as −0.12 log base 2 and the “Relative to UNC0638 Average” value is reported as 0.30 log base 2. Moreover, in the experiment on 3×MBT domain of L3MBTL1, the “3xMBT/D355N UNC Heavy” value amounted to 0.48 log base 2 and the “3xMBT/D355N UNC Light” value worked out at 1.60 log base 2.

B5: PRPF40A (protein, UniProt O75400 1-957, looked up)
Pre-mRNA-processing factor 40 …: MRPGTGAERGGLMVSEMESHPPSQGPGDGERRLSGSSLCSGSWVSADGFLRRRPSMGHPGMHYAPMGMHPMGQRANMPPVPHGMMPQMMPPMGGPPMGQMPGMMSSVMPGMMMSHMSQASMQPALPPGVNSMDVAAGTASGAKSMWTEHKSPDGRTYYYNTETKQSTWEKPDDLKTPAEQLLSKCPWKEYKSDSGKPYYYNSQTKESRWAKPKELEDLEGYQNTIVAGSLITKSNLHAMIKAEESSKQEECTTTSTAPVPTTEIPTTMSTMAAAEAAAAVVAAAAAAAAAAAAANANASTSASNTVSGTVPVVPEPEVTSIVATVVDNENTVTISTEEQAQLTSTPAIQDQSVEVSSNTGEETSKQETVADFTPKKEEEESQPAKKTYTWNTKEEAKQAFKELLKEKRVPSNASWEQAMKMIINDPRYSALAKLSEKKQAFNAYKVQTEKEEKEEARSKYKEAKESFQRFLENHEKMTSTTRYKKAEQMFGEMEVWNAISERDRLEIYEDVLFFLSKKEKEQAKQLRKRNWEALKNILDNMANVTYSTTWSEAQQYLMDNPTFAEDEELQNMDKEDALICFEEHIRALEKEEEEEKQKSLLRERRRQRKNRESFQIFLDELHEHGQLHSMSSWMELYPTISSDIRFTNMLGQPGSTALDLFKFYVEDLKARYHDEKKIIKDILKDKGFVVEVNTTFEDFVAIISSTKRSTTLDAGNIKLAFNSLLEKAEAREREREKEEARKMKRKESAFKSMLKQAAPPIELDAVWEDIRERFVKEPAFEDITLESERKRIFKDFMHVLEHECQHHHSKNKKHSKKSKKHHRKRSRSRSGSDSDDDDSHSKKKRQRSESRSASEHSSSAESERSYKKSKKHKKKSKKRRHKSDSPESDAEREKDKKEKDRESEKDRTRQRSESKHKSPKKKTGKDSGNWDTSGSELSEGELEKRRRTLLEQLDDDQ
On to B5, for which, in the experiment with G9a and GLP, the “Relative to UNC0638 UNC Heavy” value is recorded as 0.33 log base 2, the “Relative to UNC0638 UNC Light” value turned out to be 0.24 log base 2 and the “Relative to UNC0638 Average” value is 0.29 log base 2. Besides, in the experiment on 3×MBT domain of L3MBTL1, the “3xMBT/D355N UNC Heavy” value was determined as 3.54 log base 2 and the “3xMBT/D355N UNC Light” value amounted to 2.13 log base 2.
